Results published in the Human Domainome abundance scans (Beltran et al. 2025).
± gives the uncertainty stated by the source.

B1: POU domain, class 2, transcription factor 3, residues 186 to 260; numbered along this chain, Q9UKI9 (parent)
chain: SDLEELEKFAKTFKQRRIKLGFTQGDVGLAMGKLYGNDFSQTTISRFEALNLSFKNMCKLKPLLEKWLNDAESSP

Variants of: B1
Test: abundance fitness (aPCA) (normalised: wild type 0, dead -1); higher = more abundant; growth selection in yeast, the domain comes from the species named
Details: Homo sapiens

| Variant | abundance fitness |
| --- | --- |
| SDLEELEKFAKTFKQRRIKLGFTQGDVGLAMGKLYGNDFSQTTISRFEALNLSFKNMCKLFPLLEKWLNDAESSP [K61F] | -0.324 ± 0.092 |
| SDLEELEKFAKTFKQRRIKLGFTQVDVGLAMGKLYGNDFSQTTISRFEALNLSFKNMCKLKPLLEKWLNDAESSP [G25V] | -0.161 ± 0.27 |
| SDLEELEKFAKTFKQRRIKLGFTQGDVGLAMGKLYGNDFSQTTISRFEALNLSFKNMCKLKPLREKWLNDAESSP [L64R] | -0.83 ± 0.071 |
| SDLEELEKFAKTFKQRRIKLGFTQGDVGLAMGKLYGNDFSETTISRFEALNLSFKNMCKLKPLLEKWLNDAESSP [Q41E] | 0.026 ± 0.027 |
| SDLEELEKFAKTFKQRRIKLGFTQGDVGLAMGKLYGNDFSPTTISRFEALNLSFKNMCKLKPLLEKWLNDAESSP [Q41P] | -0.03 ± 0.035 |
| SDLEELEKFAKTFKQRRIKLGFTQGDVGLAMGKLYGNDFSWTTISRFEALNLSFKNMCKLKPLLEKWLNDAESSP [Q41W] | -0.095 ± 0.027 |
| SDLEELEKFAKTFKQRRIKLGFTQGDVGLAMGKLYGNDFSQTTISRFEALNLSFKNMCKLKRLLEKWLNDAESSP [P62R] | -0.149 ± 0.032 |
| SDLEELEKFAKTFKQRRIKLGFTQGDVGLAMGKLYGNDFSQTTISRFEALNPSFKNMCKLKPLLEKWLNDAESSP [L52P] | -0.972 ± 0.19 |
| SDLEELEKFAKTFKQRRIKLGFTQGDVGLAMGKLYGNDFSQTTISRFEALNLSFKNMCKLKPLLEKWLNDTESSP [A71T] | -0.005 ± 0.06 |
| SDLEELEKFAKTFKQRRIKLGFTQGDVGLAMGKLYGNDFSQTTISRFEALNLSFKNMCKLKPLLEKWLNDRESSP [A71R] | -0.025 ± 0.03 |
| SDLEELEKFAKTFKQRRIKLGFTQGDVGLAMGKLYGNDFSQTTISRFEALNLSFKNMCKLKPLLEKWLNDGESSP [A71G] | -0.156 ± 0.033 |
| SDLEELEKFAKTFKQRRIKLGFTQGDVGLAMGKLYGNDFSQTTISRFEALNLSFKNMCKLKPLLEKWLNDADSSP [E72D] | -0.037 ± 0.058 |
| SDLEELEKFAKTFKQRRIKLGFTQGDVGLAMGKLYGNDFSQTTASRFEALNLSFKNMCKLKPLLEKWLNDAESSP [I44A] | -0.784 ± 0.048 |
| SDLEELEKFAKTFKQRRIKLGFTQGDVGLAMGKLYGNDFSQTTDSRFEALNLSFKNMCKLKPLLEKWLNDAESSP [I44D] | -1.03 ± 0.13 |
| SDLEELEKFAKTFKQRRIKLGFTQGDVGLAMGKLYGNDFSQTTISRFEALNLSFTNMCKLKPLLEKWLNDAESSP [K55T] | -0.003 ± 0.047 |
| SDLEELEKFAKTFKQGRIKLGFTQGDVGLAMGKLYGNDFSQTTISRFEALNLSFKNMCKLKPLLEKWLNDAESSP [R16G] | -0.147 ± 0.11 |
| SDLEELEKFAKTFKQRRIKLGFTQGDVGLAMGKLYGNDFSQTTISRFEALNLDFKNMCKLKPLLEKWLNDAESSP [S53D] | -0.04 ± 0.049 |
| SDLEELEKFAKTFKQRRIKLGFTQGDVGLAMGKLYGNDFSQTTISRFEALNLMFKNMCKLKPLLEKWLNDAESSP [S53M] | -0.608 ± 0.081 |
| SDLEELEKFAKTFKQRRIKLGFTWGDVGLAMGKLYGNDFSQTTISRFEALNLSFKNMCKLKPLLEKWLNDAESSP [Q24W] | -0.591 ± 0.48 |

| Variant | abundance fitness |
| --- | --- |
| SDLEELEKFAKTFKQRRIKLGFTQGDVGLAMGKLYGNDFSQTTISRFEALNLSFKNMCKLKPLLIKWLNDAESSP [E65I] | 0.023 ± 0.13 |
| SDLEELEKFAKTFKQRRIKLGFTQGDVGLAMGKLYGNDFSQTTISRFEALNLSFKNMCKLKPLLQKWLNDAESSP [E65Q] | -0.109 ± 0.057 |
| SDLEELEKFAKTFKQRRIKLGFTQGDVGLAMGKLYGNDFSQTTISRFEALNLSFKNMCKLKPLLLKWLNDAESSP [E65L] | -0.043 ± 0.033 |
| SDLEELEKFAKTFKQRRIKLGFTQGDVGLAMGKLYGNDFSQITISRFEALNLSFKNMCKLKPLLEKWLNDAESSP [T42I] | 0.135 ± 0.25 |
| SDLEALEKFAKTFKQRRIKLGFTQGDVGLAMGKLYGNDFSQTTISRFEALNLSFKNMCKLKPLLEKWLNDAESSP [E5A] | 0.042 ± 0.028 |
| SDLEFLEKFAKTFKQRRIKLGFTQGDVGLAMGKLYGNDFSQTTISRFEALNLSFKNMCKLKPLLEKWLNDAESSP [E5F] | -0.102 ± 0.044 |
| SDLEYLEKFAKTFKQRRIKLGFTQGDVGLAMGKLYGNDFSQTTISRFEALNLSFKNMCKLKPLLEKWLNDAESSP [E5Y] | -0.269 ± 0.051 |
| SDLEELEKFAKTFKQRRIKLGFTQGDVGLAMGKLYGNDFSQTTISRFEALNLSFKNMCKYKPLLEKWLNDAESSP [L60Y] | -0.117 ± 0.052 |
| SDLEELEKFAKTFKQRRIKLGFTQGDVGLAMGKLYGNDFSQTTISRFEALNLSFKNMCKMKPLLEKWLNDAESSP [L60M] | -0.062 ± 0.055 |
| SDLEELEKFAKTFKQRRIKLGFTQGDVGLAMGKLYGNDFSQTTISRFEALNLSFKNMCKLKPLLEKWLNPAESSP [D70P] | -0.405 ± 0.064 |
| SDLEELEKFAKTFKQRRIKLGFTQGDVGLAMGKLYGNDFSQTTISRFEALNLSFKNMCKLKPLLEKWLNTAESSP [D70T] | 0.082 ± 0.064 |
| SDLEELEKFAKTFKQRRIKLGFTQGDVGLAMGKLYGNDFSQTTISWFEALNLSFKNMCKLKPLLEKWLNDAESSP [R46W] | -0.428 ± 0.043 |
| SDLEELEKFAKTFKQRRIKLGFTQGDVGLAMGKLYGNDFSQTTISMFEALNLSFKNMCKLKPLLEKWLNDAESSP [R46M] | -0.001 ± 0.044 |
| SDLEELEKFAKTFKQRRIKLGFTQGDVGLAMGKLYGNDFSQTTISDFEALNLSFKNMCKLKPLLEKWLNDAESSP [R46D] | 0.009 ± 0.058 |
| SDLEELEKFAKTFKQRRIKLGFTQGDVGLAMGKLYGNDFSQTTISRFEALNLSAKNMCKLKPLLEKWLNDAESSP [F54A] | 0.013 ± 0.032 |
| SDLEELEKFAKTFKQRRIKLGFTQGDVGLAMGKLYGNDFSQTTISRFEALNLSTKNMCKLKPLLEKWLNDAESSP [F54T] | 0.013 ± 0.041 |
| SDLEELEKFAKTFKQRRIKLGFTQGDVGLAMGKLYGNDFSQTTISRFERLNLSFKNMCKLKPLLEKWLNDAESSP [A49R] | -0.036 ± 0.13 |
| SDLEELEKFAKTFKQRRIKLGFTQGDVGLAMGKLYGNDFSQTTISRFEALNLSFKNMCKLKPLLEKWLVDAESSP [N69V] | -0.028 ± 0.036 |
